According to patent US20220112288A1 (published 2022):

How the values were obtained:
[1] = biological target: T1, Recombinant human CD4 (R&D Systems, Cat. 10327-CD) (human, UniProt P01730 26-390, limits assumed); assay: BLI Octet, non-clonal supernatant on AMC sensor, 100 nM human CD4, 1:1 local fit;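 note: Single-concentration kinetics per supernatant, with the 1:1 model fitted across both the association and dissociation phases of the sensorgram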
T1 construct: Bought reagent; also called huCD4

[2] = biological target: T2, Rhesus macaque CD4-HIS (Acro Biosystems, Cat. CD4-C52H7) (rhesus macaque, UniProt P16003 26-390); assay: BLI Octet, mAb on anti-mouse Fc sensor, rhesus CD4-HIS 25-100 nM, 1:1 global fit;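 note: purified antibodies captured at 10 µg/mL, rhesus CD4 analyte run as a three-concentration serial dilution, irrelevant antibody as reference control, one kinetic constant set per antibody from global fitting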
T2 construct: Bought reagent; also called Rhesus CD4; rhesus CD4-HIS; not shown: His tag
T2 sequence (P16003 26-390 limits assumed): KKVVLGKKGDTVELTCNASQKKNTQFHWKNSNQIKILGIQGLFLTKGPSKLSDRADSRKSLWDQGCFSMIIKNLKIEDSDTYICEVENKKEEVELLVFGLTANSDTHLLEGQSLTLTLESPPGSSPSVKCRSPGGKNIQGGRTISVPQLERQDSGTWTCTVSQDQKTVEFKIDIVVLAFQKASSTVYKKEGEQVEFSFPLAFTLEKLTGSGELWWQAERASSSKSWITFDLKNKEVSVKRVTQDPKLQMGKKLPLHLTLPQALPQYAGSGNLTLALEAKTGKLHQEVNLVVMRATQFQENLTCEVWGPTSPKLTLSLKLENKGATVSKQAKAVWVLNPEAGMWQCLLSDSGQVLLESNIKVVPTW

human CD4 on human PBMCs = biological target: T3, human CD4 on human PBMCs (human, UniProt P01730 26-458); assay: FACS, clonal hybridoma supernatant on PBMCs
T3 construct: whole, on cells; the CD4-positive gate was set with the control antibodies OKT4 and RPA-T4; also called hCD4

[3] = biological target: T4, Recombinant human CD4 (R&D Systems, Cat. 10327-CD) (human, UniProt P01730 26-390, limits assumed); assay: BLI (Octet Red384), non-clonal supernatant on AMC sensor, 100 nM human CD4, 1:1 local fit;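 note: hybridoma antibodies captured from supernatant, single CD4 concentration as analyte, association and dissociation phases fitted together, giving single-point kinetic estimates per supernatant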
T4 construct: Bought soluble recombinant protein used as analyte at 100 nM; also called huCD4

Binder	Kd [2]	Response [2]	koff [2]	kon [2]	% CD4 Stain (human CD4 on human PBMCs)	gMFI of CD4+ (human CD4 on human PBMCs)	further results
75110_14P08A (antibody, V domains shown, Tested as non-clonal AlivaMab Mouse Kappa hybridoma supernatant, captured by anti-mouse IgG Fc sensor) VH: QVQLQESGPGLVKSSETLSLTCTDSGDSIRSYYWNWIRQPAGKGLEWIGRIYASGSTNYNPSLKSRVIMSADTSKNRFSLKLSSVTAADTAVYYCARDGGVGDSLDYWGQGTLVTVSS VL: DIVMTQTPLSLPVTPGEPASISCRSSQSLLDSDDGNTYLDWYLQKPGQSPQLLIYTLSYRASGVPDRFSGSGSGTDFTLKISRVEAEDVGVYYCMQRIEFPFTFGPGTKVDIK	–	–	–	–	–	–	Kd [1]: 7.47 nM; koff [1]: 0.00134 s⁻¹; kon [1]: 179000 M⁻¹ s⁻¹
75110_03L12A (antibody, V domains shown, Tested as clonal hybridoma supernatant of an AlivaMab Mouse Kappa antibody (human variable regions, kappa; detected with anti-mouse Fc)) VH: QVQLQQWGAGLLKPSETLSLTCAVYGGSFSGYYWSWIRQPPGKGLEWIGEINHSGSTNYNPSLKSRVTISVDTSENQFSLTLISVTAADTAVYYCVRLINWFDPWGQGTLVTVSS VL: DIQMTQSPSSVSASVGDRVTITCRASQDISNWLAWYQQKPGKAPKLLIFAASSLQSGVPSRFSGSGSGTDFTLTISSLQPDDFATYYCQQANSFPYTFGQGTNLGIK	–	–	–	–	36.8%	162000 gMFI	–
75110_10O16A (antibody, V domains shown, Non-clonal AlivaMab Mouse Kappa hybridoma supernatant, captured by anti-mouse IgG Fc (human V regions, mouse Fc); also called 75110_10016A) VH: EVQLVESGGGLVQPGGSLRLSCAASGFTFSNSDMHWVRQATGKGLEWVSTIGTAGDTYYPGSVKGRFTISRENAKNSLYLQMNSLRAGDTAVYYCARGGLYYYGMDVWGQGTTVTVSS VL: ENVLTQSPGTLSLSPGERATLSCRASQSVSSSYLAWYQQKPGQAPRLLIYGASSRATGIPDRFSGSGSGTDFTLTISRLEPEDFAVYYCHQFGSSPFTFGPGTKVDIK	–	–	–	–	–	–	Kd [3]: < 0.001 nM; koff [3]: < 1e-07 s⁻¹; kon [3]: 64800 M⁻¹ s⁻¹
75110_04F22A (antibody, V domains shown, Tested as clonal hybridoma supernatant of an AlivaMab Mouse Kappa antibody (human variable regions, kappa; detected with anti-mouse Fc)) VH: EVQLVESGGGLVQPGGSLRLSCAASGFTFSSYDIHWVRQATGKGLEWVSTIGTAGDTYYPGSVKGRFTISRENAKNSLYLQMNSLRAGDTAVYYCARGGYYYYGMDVWGQGTTVTVSS VL: EIVLTQSPGTLSLSPGERATLSCRASQSVYSSYLAWYQQKPGQAPRLLIYGASSRATGIPDRFSGSGSGTDFTLTISRLEPEDFAVYYCQQFGTSPFTFGPGTKVDIK	–	–	–	–	37.7%	216000 gMFI	–
75110_03I23A (antibody, V domains shown, Tested as clonal hybridoma supernatant of an AlivaMab Mouse Kappa antibody (human variable regions, kappa; detected with anti-mouse Fc)) VH: QVQLQESGPGLVKPSETLSLTCTASGGSITSYYWNWIRQPAGKGLEWIGRIYTSGSTNYNPSLKSRVTMSVDTSKNQFSLKLSSVTAADTAVYYCARDPGYSDAFNIWGQGTMVTVSS VL: not shown	–	–	–	–	26.2%	67900 gMFI	–
75110_03B16A (antibody, V domains shown, Tested as antibody purified from AlivaMab Mouse hybridoma supernatant (captured by anti-mouse IgG Fc)) VH: EVQLVESGGGLVQPGGSLRLSCAASGFTFSSYWMSWVRQAPGKGLEWVANINEDGSEKNYVDSVKGRFTISRDNAKNSLCLQLNSLRAEDTAVYHCAREGGQWLALDYWGQGTLVTVSS VL: DIQMTQSPSSVSASVGDRVNITCRASQGIRSWLAWYQQKPGKTPKLLICGASSLQSGVPSRFSGSGSGTDFTLTISSLQPEDFATYYCQQANSFPWTFGQGTTVEIK	23 nM	0.19	0.004 s⁻¹	170000 M⁻¹ s⁻¹	–	–	–
75110_03I08A (antibody, V domains shown, Tested as antibody purified from AlivaMab Mouse hybridoma supernatant (captured by anti-mouse IgG Fc)) VH: QVQLQESGPGLVKPSETLSLTCTVSGGSISSYYWSWIRQPPGKGLEWIGYIYYSGSTNYNPSLKSRVTISVDTSKNQFSLKLSSVTAADTAVYYCAREGEQWFYGLDVWGQGTTVTVSS VL: EIVLTQSPGTLSLSPGERATLSCRASQSVSSTYLAWYQQKPGQAPRLLIYGSSSRATGIPDRFSGSGSGTDFTLTISRLEPEDFAVYYCQQYGNSFPITFGQGTRLEIK	6.1 nM	0.04	0.00061 s⁻¹	100000 M⁻¹ s⁻¹	–	–	–
75110_03I08A (antibody, V domains shown, Tested as clonal hybridoma supernatant of an AlivaMab Mouse Kappa antibody (human variable regions, kappa; detected with anti-mouse Fc)) VH: QVQLQESGPGLVKPSETLSLTCTVSGGSISSYYWSWIRQPPGKGLEWIGYIYYSGSTNYNPSLKSRVTISVDTSKNQFSLKLSSVTAADTAVYYCAREGEQWFYGLDVWGQGTTVTVSS VL: EIVLTQSPGTLSLSPGERATLSCRASQSVSSTYLAWYQQKPGQAPRLLIYGSSSRATGIPDRFSGSGSGTDFTLTISRLEPEDFAVYYCQQYGNSFPITFGQGTRLEIK	–	–	–	–	17.8%	26100 gMFI	–
75110_04B08A (antibody, V domains shown, Tested as antibody purified from AlivaMab Mouse hybridoma supernatant (captured by anti-mouse IgG Fc)) VH: QVQLVESGGGVVQPGRSLRLSCTASGFNFINYGIHWVRQAPGKGLEWVTIIWYDGSKKYYADSVKGRFAISRDNSKNTLYLQMNSLRAEDTAVYYCAREDDWNDGLAYWGQGTLVTVSS VL: AIQMTQSPSSLSASVGDRVTITCRASQDIRNDLGWYQQKPGKAPNLLIYAASNLQSGVPSRFSGSGSGTDFTLTISSLQPEDFATYYCLQDSNYPRTFGQGTKVEIK	18 nM	0.26	0.0048 s⁻¹	270000 M⁻¹ s⁻¹	–	–	–
75110_04B08A (antibody, V domains shown, Tested as clonal hybridoma supernatant of an AlivaMab Mouse Kappa antibody (human variable regions, kappa; detected with anti-mouse Fc)) VH: QVQLVESGGGVVQPGRSLRLSCTASGFNFINYGIHWVRQAPGKGLEWVTIIWYDGSKKYYADSVKGRFAISRDNSKNTLYLQMNSLRAEDTAVYYCAREDDWNDGLAYWGQGTLVTVSS VL: AIQMTQSPSSLSASVGDRVTITCRASQDIRNDLGWYQQKPGKAPNLLIYAASNLQSGVPSRFSGSGSGTDFTLTISSLQPEDFATYYCLQDSNYPRTFGQGTKVEIK	–	–	–	–	40.6%	246000 gMFI	–
75110_04D20A (antibody, V domains shown, Tested as antibody purified from AlivaMab Mouse hybridoma supernatant (captured by anti-mouse IgG Fc)) VH: QVQLQESGPGLVKPSETLSLTCTVSNGSISDYYWSWIRQPAGKGLEWIGRIYTSGSTNYNPSLKSRITMSVDTSKNQFSLELSSVTAADTAVYYCARELERYYFYGVDVWGQGTTVTVSS VL: not shown	12 nM	0.13	0.0017 s⁻¹	140000 M⁻¹ s⁻¹	–	–	–
75110_04D20A (antibody, V domains shown, Tested as clonal hybridoma supernatant of an AlivaMab Mouse Kappa antibody (human variable regions, kappa; detected with anti-mouse Fc)) VH: QVQLQESGPGLVKPSETLSLTCTVSNGSISDYYWSWIRQPAGKGLEWIGRIYTSGSTNYNPSLKSRITMSVDTSKNQFSLELSSVTAADTAVYYCARELERYYFYGVDVWGQGTTVTVSS VL: not shown	–	–	–	–	33.2%	241000 gMFI	–

Further lines, with some results ahead:

Kd [2]	Response [2]	koff [2]	kon [2]	% CD4 Stain (human CD4 on human PBMCs)	gMFI of CD4+ (human CD4 on human PBMCs)	Binder	further results
2.3 nM	0.06	4.9e-05 s⁻¹	21000 M⁻¹ s⁻¹	–	–	75110_05E05A (antibody, V domains shown, Tested as antibody purified from AlivaMab Mouse hybridoma supernatant (captured by anti-mouse IgG Fc)) VH: QVQLQESGPGLVKPSETLSLTCTVSGGSIGSYYWSWIRQPAGKGLEWIGRIYTSGSTNYNPSLKSRVTMSFDTSKNQFSLKLNSVTAADTAVYYCATDGGVGDSLDYWGQGTLVTVSS VL: DIVMTQTPLSLPVTPGEPASISCRSSQSLLDSDDGNTYLDWYLQKPGQSPQLLIYTLSYRASGVPDRFSGSGSGTDFTLKISRVEAEDVGVYYCMQHIEFPFTFGPGTKVDIK	–
60 nM	0.12	0.0091 s⁻¹	150000 M⁻¹ s⁻¹	–	–	75110_04P08A (antibody, V domains shown, Tested as antibody purified from AlivaMab Mouse hybridoma supernatant (captured by anti-mouse IgG Fc)) VH: QVQLQQWGAGLLKPSETLSLTCAVYGGSLSGYYWSWIRQSPGKGLEWIGEINQSGSTNYNPSLKSRVTISVDTSKDQFSLRLTSVTAADTAVYYCTRVLNWFDPWGRGTLVTVSS VL: DIQMTQSPSSVSASVGDRVTLTCRASQDISNWLAWYQQKPGKAPKLLIYAASSLQSGVPSRFSGSGSGTDFTLTISSLQTEDFATYYCQQANSFPYTFGQGTKLEIK	–
1.7 nM	0.18	0.0002 s⁻¹	120000 M⁻¹ s⁻¹	–	–	75110_04H17A (antibody, V domains shown, Tested as antibody purified from AlivaMab Mouse hybridoma supernatant (captured by anti-mouse IgG Fc)) VH: QVQLQESGPGLVKPSETLSLTCTVSGGSISTYYWSWIRQSAGKGLEWIGRIYTSERPNYNPSLKSRVTMSVDTSKNQFSLKLNSVSAADTAVYYCARELERPYYYGMDVWGQGTTVTVSS VL: DVQMTQSPSSLSASVGGRVTITCQASQDISNYLNWYQQKPGKAPKLLIYYASNLETGVPSRFSGSGSGTDFTFTISSLQPEDFATYYCQQYDNLPLTFGGGTKVEIK	–
2.4 nM	0.27	0.00022 s⁻¹	92000 M⁻¹ s⁻¹	–	–	75110_04G16A (antibody, V domains shown, Tested as antibody purified from AlivaMab Mouse hybridoma supernatant (captured by anti-mouse IgG Fc)) VH: QVQLQESGPGLVKPSQTLSLTCTVSGDSISSGYYYWSWIRQHPGKGLEWIGYISYSGSTYYNPSLKSRLTISVNTSKNQFSLKLSSLTAADTAVYYCARDRPSNFDAFDIWGQGTMVTVSS VL: EIVLTQSPGTLSLSPGERATLSCRASQSVGSTYLAWYQQKPGQAPRLLIYGAFSRATGIPDRFSGSGSGTDFTLTISRLEPEDFAVYYCQQYGSSPLTFGPGTKVDIK	–
–	–	–	–	36.9%	241000 gMFI	75110_04P06A (antibody, V domains shown, Tested as clonal hybridoma supernatant of an AlivaMab Mouse Kappa antibody (human variable regions, kappa; detected with anti-mouse Fc)) VH: EVQLVESGGGLVQPGGSLRLSCAASGFTFSNYDMHWVRQATGKGLEWVSTIGTAGDTYYPGSVKGRFTISRENAKNSLYLQMNSLRAGDTAVYYCARGGDYYYGMDVWGQGTTVTVSS VL: EIVLTQSPDTLSLSPGERATLSCRASQSLSSVYLAWYQQKPGQAPRLLIYGASSRATGIPDRFSGSGSGTDFTLTINRLEPEDFVVYYCQQYGSSPFTFGPGTKVDIK	–
6.7 nM	0.03	0.0079 s⁻¹	1.2e+06 M⁻¹ s⁻¹	–	–	75110_05E13A (antibody, V domains shown, Tested as antibody purified from AlivaMab Mouse hybridoma supernatant (captured by anti-mouse IgG Fc)) VH: EVQLVESGGDLVKPGGSLRLSCAASGFSFSNAWMSWVRQAPGKGLEWVGRVESKTDGGTTDYAAPVKDRFTISRDDSKYTLYLQMNSLKTEDSAVYYCTIGGGFGLELYGFFDYWGQGTLVTVSS VL: DIQMTQSPSTLSASVGDRVTITCRASQSISSWLAWYQQKPGKAPMLLIYKASSLESGVPSRFSGSGSGTEFTLTISSLQPDDFATYYCLQYNSYYTFGQGTKLEIK	–
4.7 nM	0.14	0.002 s⁻¹	420000 M⁻¹ s⁻¹	–	–	75110_05B13A (antibody, V domains shown, Tested as antibody purified from AlivaMab Mouse hybridoma supernatant (captured by anti-mouse IgG Fc)) VH: QVLLEQWGAGLLKPSETLSLTCAVYGGSFSGYYWTWIRQPPGKGLEWIGEINHRGSTNYNPSLKSRVTISIDTSKNQFSLKVKSVTAADTAMYYCTRPDSNWFDPWGQGTLVTVSS VL: DIQMTQSPSSVSASVGDRVTITCRASQDISNWLAWYQQKPGKAPKLLIFAASSLQSGVPSRFSGSGSGTDFTLTISSLQPEDFATYYCQQANSFPLTFGGGTKVEIK	–
